Data on 10 molecules can be found in patent publication US20240010697A1 (CYTIMM THERAPEUTICS, published 2024).

Test [1] has as its target T1, IL-2Rα in a human Fc fusion protein format (ACROBiosystems) (human, UniProt P01589 22-213, limits assumed).
T1 construct: Bought reagent; also called CD25; not shown: human Fc (captured by anti-human IgG Fc)
T1 sequence (looked up): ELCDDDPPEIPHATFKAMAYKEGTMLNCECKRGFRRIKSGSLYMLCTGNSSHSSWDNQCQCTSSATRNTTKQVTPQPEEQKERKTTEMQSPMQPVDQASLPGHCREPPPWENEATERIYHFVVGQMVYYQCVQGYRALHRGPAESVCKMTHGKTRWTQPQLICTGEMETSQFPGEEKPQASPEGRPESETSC
The test is described as follows: ELISA; EC50 on IL-2Rα over EC50 on IL-2Rβγ (reference). The method, then: (§1) IL-2Rα and IL-2R βγ-human Fc fusion protein constructs (ACRO Biosystems) were each expressed and immobilized by anti-Human IgG Fc (abeam), which were then captured on the surface of wells of a microplate. […] Binding was detected using anti-His or anti-PEG antibody conjugated to horse radish peroxidase (HRP) (Genscript), which was incubated with substrate. The quantification of binding was measured with an absorbance-based microplate reader. Data were analyzed by Graphpas prism9 Software.

Test [2] concerns the target T1, IL-2Rα in a human Fc fusion protein …. The test is described as follows: ELISA, receptor-Fc captured by anti-human IgG Fc, anti-His-HRP detection. The method, then:
as §1
For orientation: In an ELISA, binding on a coated surface is turned into a signal by an enzyme label.

For test [3], the target named is T2, IL-2Rβγ-human Fc fusion protein construct (ACRO Biosystems) (human, UniProt P14784 27-239; P31785 23-262, limits assumed).
T2 construct: not shown: human Fc
T2 sequence (looked up) 1: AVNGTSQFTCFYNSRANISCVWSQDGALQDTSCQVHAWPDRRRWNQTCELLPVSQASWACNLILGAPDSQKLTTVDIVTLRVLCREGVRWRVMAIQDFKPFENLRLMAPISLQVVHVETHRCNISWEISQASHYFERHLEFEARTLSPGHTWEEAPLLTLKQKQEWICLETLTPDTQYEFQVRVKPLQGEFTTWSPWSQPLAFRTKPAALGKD
T2 sequence (looked up) 2: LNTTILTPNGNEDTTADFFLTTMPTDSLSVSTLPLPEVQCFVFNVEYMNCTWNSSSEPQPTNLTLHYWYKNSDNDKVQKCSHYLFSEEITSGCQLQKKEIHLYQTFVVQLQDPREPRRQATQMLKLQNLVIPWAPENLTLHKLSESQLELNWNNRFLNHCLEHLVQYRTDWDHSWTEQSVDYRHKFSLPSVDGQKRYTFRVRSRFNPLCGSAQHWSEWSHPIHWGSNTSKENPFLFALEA
The description is as above. On the procedure:
as §1

Test [4] concerns the target T1, IL-2Rα in a human Fc fusion protein …. The test is described as follows: biosensor kinetics, receptor as ligand on the sensor, IL-2 protein as sample, 1:1 Binding model (legend: Octet QKe; table heads give RU). For orientation: BLI is a label-free optical method that tracks binding on a fibre tip over time.
Test [5] deals with T2, IL-2Rβγ-human Fc fusion protein …. Described as above.
In a further test the target is T3, IL2R αβγ.
T3 construct: Cell-free IL-2Rαβγ on a biosensor; not the cell-borne receptors m18 and m19; also called IL-2Rαβγ (ligand on the sensor)
The description is as above.

In test [6] the target is T1, IL-2Rα in a human Fc fusion protein …. In words: BLI (Octet QKe), IL-2Rα-Fc captured on AHC sensors, 1:1 fit; row printed a second time. From the text: (§2) IL-2Rα or IL-2Rβ in a human Fc fusion protein format (ACROBiosystems) were captured on anti-human IgG Fc capture (AHC) sensors. […] Dissociation was detected following transfer of sensors into wells containing buffer alone. Data were collected and analyzed by the Octet User Software. For analysis of the kinetics constants, a 1:1 curve fitting model was used.

Test [7] has the same target. The test is described as follows: BLI (Octet QKe), IL-2Rα-Fc captured on AHC sensors, 1:1 fit.
From the text: as §2

B1: ACT5210, IL-2 mutein Y31C + L18M + L19S (ligand)
chain: APTSSSTKKTQLQLEHLMSDLQMILNGINNCKNPKLTRMLTFKFYMPKKATELKHLQCLEEELKPLEEVLNLAQSKNFHLRPRDLISNINVIVLELKGSETTFMCEYADETATIVEFLNRWITFSQSIISTLT
notes: Not PEGylated; rhIL-2 (C125S) background; also called His-conjugated IL-2 mutein (ACT5210); not shown: His-Tag
As usually defined, the EC50 is the midpoint of the concentration-response curve. A low value points to greater potency. For orientation: Kd means a measure of binding affinity in units of concentration. In general, koff refers to the first-order rate constant of dissociation. A higher koff goes with a short-lived complex. Broadly, the kon is a measure of how fast the partners come together. Higher therefore signals fast association. With B1, the “Ratio (α/βγ) of EC50” value in test [1] is 0.06. For the same molecule, the EC50 is 0.0025 µg/mL in test [2] and 0.0396 µg/mL in test [3]. Besides, the results for the Kd (in test [4]; in test [5]; with IL2R αβγ) were 28.4 nM, 1.04 nM and 0.0113 nM, respectively. For the same molecule, the koff in test [4] amounted to 0.164 s⁻¹; in test [5] it was 0.000837 s⁻¹; with IL2R αβγ, 0.000281 s⁻¹. Also, the kon in test [4] worked out at 5.75e+06 M⁻¹ s⁻¹; in test [5], 807000 M⁻¹ s⁻¹; in the test with IL2R αβγ, 2.48e+07 M⁻¹ s⁻¹.

B2: IL-2 mutein Y31C - PEG20 + N30G (ligand)
chain: APTSSSTKKTQLQLEHLLLDLQMILNGINGCKNPKLTRMLTFKFYMPKKATELKHLQCLEEELKPLEEVLNLAQSKNFHLRPRDLISNINVIVLELKGSETTFMCEYADETATIVEFLNRWITFSQSIISTLT
modifications: maleimide-PEG 20K on Cys 31
notes: not shown: His-Tag
For B2, in test [6], the Kd came out at 61 nM, the off-rate constant (koff) is 0.0232 s⁻¹ and the association rate constant (kon) is 379000 M⁻¹ s⁻¹. Further, in test [7], the Kd was determined as 61 nM, the koff was found to be 0.0232 s⁻¹ and the kon came to 379000 M⁻¹ s⁻¹.

B3: ACT5231, IL-2 mutein Y31C + V69A + Q74P (PEG20K) (ligand)
chain: APTSSSTKKTQLQLEHLLLDLQMILNGINNCKNPKLTRMLTFKFYMPKKATELKHLQCLEEELKPLEEALNLAPSKNFHLRPRDLISNINVIVLELKGSETTFMCEYADETATIVEFLNRWITFSQSIISTLT
modifications: maleimide-PEG 20K on Cys 31
notes: rhIL-2 (C125S) background; also called Y31C - PEG20 + V69A + Q74P; not shown: His-Tag
In the case of B3, in test [7], the Kd came out at 9.09 nM, the off-rate (koff) is 0.00431 s⁻¹ and the kon is 474000 M⁻¹ s⁻¹.

B4: ACT5291, IL-2 mutein Y31C + V69A + Q74P + V91K (PEG20K) (ligand)
chain: APTSSSTKKTQLQLEHLLLDLQMILNGINNCKNPKLTRMLTFKFYMPKKATELKHLQCLEEELKPLEEALNLAPSKNFHLRPRDLISNINKIVLELKGSETTFMCEYADETATIVEFLNRWITFSQSIISTLT
modifications: maleimide-PEG 20K on Cys 31
notes: rhIL-2 (C125S) background; also called Y31C - PEG20 + V69A + Q74P + V91K; not shown: His-Tag
For B4, in test [7], binding was put at a Kd of 9.07 nM, the dissociation rate constant (koff) worked out at 0.0032 s⁻¹ and the kon amounted to 355000 M⁻¹ s⁻¹.

B5: IL-2 mutein Y31C - PEG20 + N30A (ligand)
chain: APTSSSTKKTQLQLEHLLLDLQMILNGINACKNPKLTRMLTFKFYMPKKATELKHLQCLEEELKPLEEVLNLAQSKNFHLRPRDLISNINVIVLELKGSETTFMCEYADETATIVEFLNRWITFSQSIISTLT
modifications: maleimide-PEG 20K on Cys 31
notes: not shown: His-Tag
Take B5: in test [7], the Kd amounted to 37.3 nM, the koff worked out at 0.0194 s⁻¹ and the kon is 520000 M⁻¹ s⁻¹.

B6: ACT5261, IL-2 mutein Y31C + L18M + L19S + V69A + Q74P (PEG20K) (ligand)
chain: APTSSSTKKTQLQLEHLMSDLQMILNGINNCKNPKLTRMLTFKFYMPKKATELKHLQCLEEELKPLEEALNLAPSKNFHLRPRDLISNINVIVLELKGSETTFMCEYADETATIVEFLNRWITFSQSIISTLT
modifications: maleimide-PEG 20K on Cys 31
notes: rhIL-2 (C125S) background; also called Y31C - PEG20 + L18M + L19S + V69A + Q74P; not shown: His-Tag
In test [7], B6 displayed a Kd of 7.38 nM, a koff of 0.0043 s⁻¹ and a kon of 581000 M⁻¹ s⁻¹.

B7: IL-2 mutein Y31C - PEG20 + V69A + Q74P + I128T (ligand)
chain: APTSSSTKKTQLQLEHLLLDLQMILNGINNCKNPKLTRMLTFKFYMPKKATELKHLQCLEEELKPLEEALNLAPSKNFHLRPRDLISNINVIVLELKGSETTFMCEYADETATIVEFLNRWITFSQSTISTLT
modifications: maleimide-PEG 20K on Cys 31
notes: not shown: His-Tag
In test [7], B7 registered an equilibrium dissociation constant (Kd) of 8.86 nM, a koff of 0.0035 s⁻¹ and a kon of 393000 M⁻¹ s⁻¹.

B8: ACT5271, IL-2 mutein Y31C + V69A + Q74P + N30S (PEG20K) (ligand)
chain: APTSSSTKKTQLQLEHLLLDLQMILNGINSCKNPKLTRMLTFKFYMPKKATELKHLQCLEEELKPLEEALNLAPSKNFHLRPRDLISNINVIVLELKGSETTFMCEYADETATIVEFLNRWITFSQSIISTLT
modifications: maleimide-PEG 20K on Cys 31
notes: rhIL-2 (C125S) background; also called Y31C - PEG20 + V69A + Q74P + N30S; not shown: His-Tag
For B8, in test [7], binding was put at a Kd of 9.14 nM, the koff stood at 0.0029 s⁻¹ and the kon was 318000 M⁻¹ s⁻¹.

B9: ACT522S1, IL-2 mutein Y31C + N30S (PEG20K) (ligand)
chain: APTSSSTKKTQLQLEHLLLDLQMILNGINSCKNPKLTRMLTFKFYMPKKATELKHLQCLEEELKPLEEVLNLAQSKNFHLRPRDLISNINVIVLELKGSETTFMCEYADETATIVEFLNRWITFSQSIISTLT
modifications: maleimide-PEG 20K on Cys 31
notes: rhIL-2 (C125S) background; also called Y31C - PEG20 + N30S; not shown: His-Tag
In test [7], B9 had a dissociation constant (Kd) of 47.3 nM, a koff of 0.0302 s⁻¹ and a kon of 639000 M⁻¹ s⁻¹.

B10: ACT5281, IL-2 mutein Y31C + V69A + Q74P + N88R (PEG20K) (ligand)
chain: APTSSSTKKTQLQLEHLLLDLQMILNGINNCKNPKLTRMLTFKFYMPKKATELKHLQCLEEELKPLEEALNLAPSKNFHLRPRDLISRINVIVLELKGSETTFMCEYADETATIVEFLNRWITFSQSIISTLT
modifications: maleimide-PEG 20K on Cys 31
notes: rhIL-2 (C125S) background; also called Y31C - PEG20 + V69A + Q74P + N88R; not shown: His-Tag
As to B10, in test [7], binding was put at a Kd of 10.6 nM, the koff turned out to be 0.0037 s⁻¹ and the kon was determined as 345000 M⁻¹ s⁻¹.
